Laboratory results taken from publication doi:10.1101/2021.04.12.439405 (bioRxiv, 2021).

Experiments:
[1] = molecular target: T1, MukB-His (wild type MukB) (E. coli, UniProt P22523 1-1486); assay: native MS
T1 sequence (looked up): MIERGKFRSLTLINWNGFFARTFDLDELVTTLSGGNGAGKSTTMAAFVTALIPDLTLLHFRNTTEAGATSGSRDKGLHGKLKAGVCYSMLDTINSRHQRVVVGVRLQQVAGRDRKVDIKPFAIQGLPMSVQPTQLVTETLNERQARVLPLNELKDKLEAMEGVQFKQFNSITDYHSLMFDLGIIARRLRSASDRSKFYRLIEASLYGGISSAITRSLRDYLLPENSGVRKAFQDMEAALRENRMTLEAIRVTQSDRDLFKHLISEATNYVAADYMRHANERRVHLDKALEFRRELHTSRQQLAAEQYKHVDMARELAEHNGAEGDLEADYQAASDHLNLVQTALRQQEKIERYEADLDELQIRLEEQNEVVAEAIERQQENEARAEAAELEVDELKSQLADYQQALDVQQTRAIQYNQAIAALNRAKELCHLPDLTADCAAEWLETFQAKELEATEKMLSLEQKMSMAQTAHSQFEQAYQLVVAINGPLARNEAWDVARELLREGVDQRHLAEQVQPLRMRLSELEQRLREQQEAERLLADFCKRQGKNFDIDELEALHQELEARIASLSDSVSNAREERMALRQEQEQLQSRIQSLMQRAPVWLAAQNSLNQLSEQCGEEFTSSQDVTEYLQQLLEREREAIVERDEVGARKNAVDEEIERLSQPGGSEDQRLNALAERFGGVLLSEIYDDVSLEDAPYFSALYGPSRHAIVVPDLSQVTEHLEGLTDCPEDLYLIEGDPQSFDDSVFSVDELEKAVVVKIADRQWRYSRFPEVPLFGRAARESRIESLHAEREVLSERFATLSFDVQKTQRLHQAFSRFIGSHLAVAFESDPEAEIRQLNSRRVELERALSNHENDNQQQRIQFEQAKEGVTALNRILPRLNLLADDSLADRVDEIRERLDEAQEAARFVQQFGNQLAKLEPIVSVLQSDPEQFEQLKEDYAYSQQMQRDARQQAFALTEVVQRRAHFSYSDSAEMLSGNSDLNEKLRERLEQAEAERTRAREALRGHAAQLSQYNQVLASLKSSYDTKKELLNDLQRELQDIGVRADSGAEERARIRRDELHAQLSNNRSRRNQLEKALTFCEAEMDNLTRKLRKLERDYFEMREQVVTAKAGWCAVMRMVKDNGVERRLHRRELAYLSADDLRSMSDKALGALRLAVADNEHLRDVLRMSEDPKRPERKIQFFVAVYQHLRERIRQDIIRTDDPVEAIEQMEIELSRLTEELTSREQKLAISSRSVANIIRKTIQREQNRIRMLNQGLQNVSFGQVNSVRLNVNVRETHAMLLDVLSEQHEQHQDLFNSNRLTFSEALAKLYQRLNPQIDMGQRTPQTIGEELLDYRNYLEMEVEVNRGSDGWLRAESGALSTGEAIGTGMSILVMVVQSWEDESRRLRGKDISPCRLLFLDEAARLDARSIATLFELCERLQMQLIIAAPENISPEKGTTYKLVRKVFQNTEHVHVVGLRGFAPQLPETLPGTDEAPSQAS

[2] = molecular target: the molecule itself; assay: native MS

binding result [1]: binds
B1: His-MukF (natural protein, E. coli, UniProt P60293 1-440, looked up)
chain: MSEFSQTVPELVAWARKNDFSISLPVDRLSFLLAVATLNGERLDGEMSEGELVDAFRHVSDAFEQTSETIGVRANNAINDMVRQRLLNRFTSEQAEGNAIYRLTPLGIGITDYYIRQREFSTLRLSMQLSIVAGELKRAADAAEEGGDEFHWHRNVYAPLKYSVAEIFDSIDLTQRLMDEQQQQVKDDIAQLLNKDWRAAISSCELLLSETSGTLRELQDTLEAAGDKLQANLLRIQDATMTHDDLHFVDRLVFDLQSKLDRIISWGQQSIDLWIGYDRHVHKFIRTAIDMDKNRVFAQRLRQSVQTYFDEPWALTYANADRLLDMRDEEMALRDEEVTGELPEDLEYEEFNEIREQLAAIIEEQLAVYKTRQVPLDLGLVVREYLSQYPRARHFDVARIVIDQAVRLGVAQADFTGLPAKWQPINDYGAKVQAHVIDKY
binding result [2]: binds
